Measurements reported in PMC6826380, “Overexpression of a Novel Cytochrome P450 Promotes Flavonoid Biosynthesis and Osmotic Stress Tolerance in Transgenic Arabidopsis” (Genes, 2019).

System: T1, C[C@@H]1O[C@@H](OC[C@H]2O[C@@H](Oc3c(-c4ccc(O)c(O)c4)oc4cc(O)cc(O)c4c3=O)[C@H](O)[C@@H](O)[C@@H]2O)[C@H](O)[C@H](O)[C@H]1O
T1 construct: N-terminal His tag, pET28a in E. coli BL21(DE3), Ni-NTA; forward coding primer starts ATGGCCGACGACTATGGC (MADDYG)
Assay: purified protein
Assay type: biochemical, Carthamus tinctorius
Settings: range of rutin concentrations; no redox partner or NADPH stated

CtCYP82G24 (Carthamus tinctorius var. tinctorius)
Km: 5.37 ± 0.123 mM
